Experimental data published in PMC12246617, “Cryo-EM structures reveal the PP2A–B55α and Eya3 interaction that can be disrupted by a peptide inhibitor” (The Journal of Biological Chemistry, 2025).
Numbering of substitutions follows the chain as printed. In names and notes the source's numbering stands.

B1: H79A: Eya3 H79A mutant protein from E. coli (protein, UniProt Q99504 1-573, looked up, variant H79A)
Protein phosphatase EYA3: MEEEQDLPEQPVKKAKMQESGEQTISQVSNPDVSDQKPETSSLASNLPMSEEIMTCTDYIPRSSNDYTSQMYSAKPYAAILSVPVSETAYPGQTQYQTLQQTQPYAVYPQATQTYGLPPFGALWPGMKPESGLIQTPSPSQHSVLTCTTGLTTSQPSPAHYSYPIQASSTNASLISTSSTIANIPAAAVASISNQDYPTYTILGQNQYQACYPSSSFGVTGQTNSDAESTTLAATTYQSEKPSVMAPAPAAQRLSSGDPSTSPSLSQTTPSKDTDDQSRKNMTSKNRGKRKADATSSQDSELERVFLWDLDETIIIFHSLLTGSYAQKYGKDPTVVIGSGLTMEEMIFEVADTHLFFNDLEECDQVHVEDVASDDNGQDLSNYSFSTDGFSGSGGSGSHGSSVGVQGGVDWMRKLAFRYRKVREIYDKHKSNVGGLLSPQRKEALQRLRAEIEVLTDSWLGTALKSLLLIQSRKNCVNVLITTTQLVPALAKVLLYGLGEIFPIENIYSATKIGKESCFERIVSRFGKKVTYVVIGDGRDEEIAAKQHNMPFWRITNHGDLVSLHQALELDFL
B2: Eya3: Eya3 protein purified from Escherichia coli (mEya3) or HEK293 FreeStyle cells (FLAG-hEya3) (protein)
chain: B1 Protein phosphatase EYA3 with A79H
modifications: left off: FLAG, end not stated, kept

Columns and labels:
Myc = details: PP2A–B55α binding mutant; cited from earlier work
Excerpt: (§1) We have shown that Eya proteins directly interact with the PP2A–B55α but not B56 subunit. […] Moreover, all Eya family members can interact with PP2A–B55α through analogous disordered regions in their NTDs ([27], [46]).

[1] = tested on: triple-negative breast cancer (TNBC) tumor; details: PP2A–B55α binding mutant; cited from earlier work
Excerpt: as §1

B55α (His-B55) = assay: Microscale thermophoresis (MST) binding of Eya3 to labeled His-B55; design: species or system human
Excerpt: We expressed and purified Eya3 protein from Escherichia coli and the His-B55α subunit from insect cells (Fig. S1). In the remainder of the article, we will use B55 to represent B55α for simplicity and PP2A–B55 to represent the holoenzyme containing the A, B55, and C subunits. We labeled His-B55 with the RED–Tris–NTA dye and carried out microscale thermophoresis (MST) experiments with increasing concentrations of Eya3.
The modeled Eya3 peptide (residues 65–86) interacts mostly with residues on blades 3 and 4 of the β-propeller on the B55 surface (including residues on the β2D and β3A loop, β3B and β3C loop, and β3D and β4A loop) and with residues on the α1 and α2 helix positioned above blade 5, as well as the α2 and β6A loop (Fig. 1F). In particular, residue H79^Eya3 forms pi–pi or pi–cation stacking with H179^B55 and a hydrogen bond with D197^B55 (Fig. 2A). […] Furthermore, Y77^Eya3 forms a hydrogen bond with the main chain carbonyl of L225^B55, and K75^Eya3 forms another hydrogen bond with Y337^B55 (Fig. 2, B and C). […] We expressed and purified Eya3 K75A, Y77A, and H79A mutant proteins from E. coli and carried out MST experiments with fluorescently labeled His-B55. […] While we were working on the structure of PP2A–B55 + Eya3, Padi et al. ([84]) published the cryo-EM structure of PP2A–B55 in complex with an Eya3 peptide (residues 62–108) on bioRxiv.
(§2) FLAG-hB55, FLAG-hEya3, GFP, and GFP-B55i were cloned into the pCAG vector; (GST)-mEya3 was cloned into pGEX-6p1; His-hB56γ1 was cloned into pGEX-4T1; and His-hB55 was cloned in pFASTbac, all using the NEBuilder HiFi DNA Assembly Cloning Kit (New England Biolabs). h and m represent human and mouse proteins, respectively.
GST-mEya3 and mutants were expressed in BL21 cells. Cells were lysed in lysis buffer containing 50 mM Tris (pH 7.5), 250 mM NaCl, 5% glycerol, 1 mM DTT, and protease inhibitor cocktail (PIC; Thermo Scientific). Lysis was done in ice with sonication using 4 × 45 s pulses with 2-min off periods. NaCl was brought up to 0.5 M using 5 M NaCl, and the lysate was centrifuged for 40 min at 18,000g. Supernatant was gravity-flown over glutathione resin twice. Resin was washed with 100 ml of lysis buffer. GST was cleaved with PreScission protease and eluted into lysis buffer. Eluates were pooled and concentrated with Amicon Ultra Centrifugal filters. Concentrated protein was separated on a pre-equilibrated S200 column for size-exclusion chromatography. Peaks were combined, concentrated again, aliquoted, and stored at −80 °C.
His-B55 was expressed in Hi5 cells. […]
His-B55 or His-B56γ1 labeled with […] (NanoTemper) was added to serial dilutions of mEya3 in PBS with 0.05% Tween-20. The samples were then read with a Monolith NT.115^Pico (NanoTemper) according to the manufacturer’s instructions.

B55 = details: Eya3 mutant; cited from earlier work
Excerpt: The modeled Eya3 peptide (residues 65–86) interacts mostly with residues on blades 3 and 4 of the β-propeller on the B55 surface (including residues on the β2D and β3A loop, β3B and β3C loop, and β3D and β4A loop) and with residues on the α1 and α2 helix positioned above blade 5, as well as the α2 and β6A loop (Fig. 1F). In particular, residue H79^Eya3 forms pi–pi or pi–cation stacking with H179^B55 and a hydrogen bond with D197^B55 (Fig. 2A). […] Furthermore, Y77^Eya3 forms a hydrogen bon ...

PP2A–B55 = details: malachite green assay, peptide substrate KRpTIRR; 50 mM Tris [pH 7.5], 50 mM NaCl, 5 mM MgCl2, 0.1 mM EDTA; cited from earlier work
Excerpt: To identify the factor that led to this discrepancy, we first repeated our as ...

Myc pT58 = details: cited from earlier work
Excerpt: The weak inhibition of the PP2A–B55 activity by its B55 binders may have different consequences i ...

[2] = tested on: Eya3 and B55 complex (FLAG-hEya3 + His-B55); assay: Mass photometry of Eya3 and B55 complex formation and its disruption by B55i; format: binding, human; details: no B55i, 20 mM Tris (pH 8), 250 mM NaCl, 1 mM MnCl2, 0.5 mM TCEP, molar ratio 1.5:1, diluted to 100 nM
Excerpt: To evaluate the effect of B55i in cells, we expressed the B55i peptide as a GFP fusion on a plasmid in 66cl4 TNBC cells.
B, MST binding affinity curve showing the interaction between mEya3 and His-B55α. C, B55i disruption of the mEya3 and His-B55α interaction on MST. […] The amount of GFP and GFP-B55i expressed was also quantified using eGFP absorbance at 488 nm and normalized to total protein in the cell lysate. The datasets in all panels represent three independent biological replicates. Error bars represent the standard deviation. Statistical data analysis was done using Fmax tests followed by two-tailed, homoscedastic t tests. ∗p < 0.05, ∗∗p < 0.01, and ∗∗∗∗p < 0.0001. MST, microscale thermophoresis; TNBC, triple-negative breast cancer. […] It is uncertain whether these count as molecular weight results or as excluded spectrum labels.
as §2
hEya3 and PP2A–B55 were combined in 20 mM Tris (pH 8), 250 mM NaCl, 1 mM MnCl2, and 0.5 mM TCEP at a molar ratio of 1.5:1. […] Immediately prior to reading, the solution was diluted to 100 nM. Samples were analyzed on the Refeyn TwoMP (Refeyn).

Kd (B55α (His-B55); His-B55 labeled with Red–Tris–NTA dye, serial dilutions of Eya3 (mEya3, E. coli), PBS with 0.05% Tween-20, Monolith NT.115 Pico, three independent biological replicates (stated for Fig. 1A)) [nM]	Molecule	Myc stabilization (Myc)	TNBC tumor metastasis [1]	binding between Eya3 and B55 (mutants) (B55α (His-B55); fluorescently labeled His-B55, vs Eya3 WT)	interaction between Eya3 and B55 (B55)	phosphatase activity of PP2A–B55 (PP2A–B55)	dephosphorylation of pT58 on Myc (Myc pT58)	Eya3 and B55 complex formation [2]
–	B1	impeded Myc stabilization	impeded	significantly reduce the binding between Eya3 and B55	dramatically reduce the interaction between Eya3 and B55	–	–	–
1040	B2	–	–	–	–	increases the phosphatase activity of PP2A–B55	clearly increases the dephosphorylation of pT58 on Myc	Eya3 and B55 form a complex
